From patent US20020164716A1 (GENETICS INSTITUTE, published 2002) come the findings set out here.

Positions count from the first letter of the chain named.

T1: TNF-R1-DD ligand protein encoded by clone 1TU (Homo sapiens (Human), UniProt Q8TEL6 488-797)
T1 construct: partial clone
T1 sequence: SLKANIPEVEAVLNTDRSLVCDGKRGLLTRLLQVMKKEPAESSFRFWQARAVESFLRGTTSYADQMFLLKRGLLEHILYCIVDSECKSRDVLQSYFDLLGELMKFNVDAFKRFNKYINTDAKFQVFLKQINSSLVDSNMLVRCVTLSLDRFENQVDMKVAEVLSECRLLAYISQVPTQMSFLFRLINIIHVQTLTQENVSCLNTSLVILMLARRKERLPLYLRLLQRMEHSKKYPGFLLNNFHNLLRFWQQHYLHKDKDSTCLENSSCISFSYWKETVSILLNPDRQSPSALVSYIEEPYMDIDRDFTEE

T2: TNF-R1-DD ligand protein encoded by clone 3DD (Homo sapiens (Human), UniProt Q9H3U1 807-944)
T2 construct: partial clone
T2 sequence: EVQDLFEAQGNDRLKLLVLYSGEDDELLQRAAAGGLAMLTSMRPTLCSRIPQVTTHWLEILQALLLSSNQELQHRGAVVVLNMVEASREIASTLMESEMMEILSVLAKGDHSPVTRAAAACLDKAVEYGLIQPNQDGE

B1: TNF-R1-DD ligand protein encoded by clone 20DD (ligand, not shown: large carriers)
chain: EKPLHALLHGRGVCLNEKSYREQVKIERDSREHEEPTTSEMAEETYSPKIFRPKHTRISELKAEAVKKDRRKKLTQSKFVGGAENTAHPRIISEPEMRQESEQGPCRRHMEASLQELKASPRMVPRAVYLPNCDRKGFYKRKQCKPSRGRKRGICWCVDKYGMKLPGMEYVDGDFQCHTFDSSNVE
B2: death domain of the fas antigen (FasDD) (receptor, UniProt P25445 230-314, looked up)
chain: SKYITTIAGVMTLSQVKGFVRKNGVNEAKIDEIKNDNVQDTAEQKVQLLRNWHQLHGKKEAYDTLIKDLKKANLCTLAEKIQTII
notes: domain: death domain
B3: entire intracellular domain of TNF-R (TNF-R p55IC) (receptor, UniProt P19438 233-455, looked up)
chain: MYRYQRWKSKLYSIVCGKSTPEKEGELEGTTTKPLAPNPSFSPTPGFTPTLGFSPVPSSTFTSSSTYTPGDCPNFAAPRREVAPPYQGADPILATALASDPIPNPLQKWEDSAHKPQSLDTDDPATLYAVVENVPPLRWKEFVRRLGLSDHEIDRLELQNGRCLREAQYSMLATWRRRTPRREATLELLGRVLRDMDLLGCLEDIEEALCGPAALPPAPSLLR
notes: domain: entire intracellular domain; also called TNF-R p55JC; cytoplasmic domain of the p55 TNF-R
B4: intracellular domain of the second TNF-R (TNF-R p75IC) (receptor, UniProt P20333 288-461, looked up)
chain: KKKPLCLQREAKVPHLPADKARGTQGPEQQHLLITAPSSSSSSLESSASALDRRAPTRNQPQAPGVEASGAGEARASTGSSDSSPGGHGTQVNVTCIVNVCSSSDHSSQCSSQASSTMGDTDSSPSESPKDEQVPFSKEECAFRSQLETPETLLGSTEEKPLPLGVPDAGMKPS
notes: domain: intracellular domain; also called TNF-R p75JC
B5: LexA-TNF-R1-DD fusion protein (death domain of the P55 type 1 TNF receptor) (receptor, UniProt P19438 355-442, looked up)
chain: DPATLYAVVENVPPLRWKEFVRRLGLSDHEIDRLELQNGRCLREAQYSMLATWRRRTPRREATLELLGRVLRDMDLLGCLEDIEEALC
notes: range 326-413; also called TNF-RDD; TNF-R death domain; not shown: LexA, bait fusion partner from plasmid pEG202
B6: TNF-R death domain mutant W378A (receptor, UniProt P19438 355-442, looked up)
chain: B5 chain with W53A
notes: range 326-413; Numbering as printed, see the note of m7; not shown: LexA, bait fusion partner from plasmid pEG202
B7: TNF-R death domain mutant I408A (receptor, UniProt P19438 355-442, looked up)
chain: B5 chain with I83A
notes: as for B6
B8: TNF-R death domain mutant L351A (receptor, UniProt P19438 355-442, looked up)
chain: B5 chain with L26A
notes: as for B6
B9: TNF-R death domain mutant F345A (receptor, UniProt P19438 355-442, looked up)
chain: B5 chain with F20A
notes: as for B6
B10: TNF-R1-DD expressed as a GST fusion protein (receptor)
chain: B5 chain
notes: range 326-413; Purified, bacterially expressed, held on glutathione beads; Numbering: see the note of m7; also called GST-TNF-R1-DD; GST/TNF-R1-DD; not shown: glutathione-S-transferase (GST) from a pGEX vector (Pharmacia)
B11: Drosophila transcription factor bicoid (other, UniProt P09081-2 2-160, looked up)
chain: AQPPPDQNFYHHPLPHTHTHPHPHSHPHPHSHPHPHHQHPQLQLPPQFRNPFDLLFDERTGAINYNYIRPYLPNQMPKPEELPDSLVMRRPRRTRTTFTSSQIAELEQHFLQGRYLTAPRLADLSAKLALGTAQVKIWFKNRRRRHKIQSDQHKDQSYE

Experiment [1] addresses B5. As to the kind of experiment: yeast interaction trap, panel of baits. From the text: (§1) A yeast genetic selection method, the “interaction trap” [Gyuris et al, Cell 75:791-803, 1993, which is incorporated herein by reference], was used to screen WI38 cell cDNA libraries (preparation, see below) for proteins that interact with the death domain of the P55 type 1 TNF receptor (TNF-R1-DD). A polynucleotide encoding amino acids 326 to 413 of the P55 type TNF receptor, TNF-R1-DD, was obtained via the polymerase chain reaction (PCR) using a grafting method. This TNF-R1-DD DNA was then cloned into pEG202 by BamHI and SalI sites, generating the bait plasmid, pEG202-TNF-R1-DD. This plasmid contains the HIS3 selectable marker, and expression of the bait, the LexA-TNF-R1-DD fusion protein, is from the strong constitutive ADH1 promoter. To create the reporter strain carrying the bait protein, yeast strain EGY48, containing the reporter sequence LexAop-Leu2 in place of the chromosomal LEU2, was transformed with pEG202-TNF-R1-DD and pSH18-34 (Ura+), which carries another reporter sequence, LexAop-lacZ. For screening cDNAs encoding proteins that interact with TNF-R1-DD, the expression vector pJG4-5 (TRP1), containing the WI38 cell cDNA library (see below for the cDNA library construction), was transformed into the above strain (EGY48/pEG202-TNF-R1-DD/pSH18-34) according to the method described by Gietz et al., Nucleic Acids Res., 20:1425 (1992).
(§2) The clones “2DD,” “3DD” and “20DD” were chosen for further analysis. Library vector pJG4-5 containing these clones sequences were rescued from yeast by transforming the total yeast DNAs into the E. coli strain KC8 and selecting for growth on Trp-ampicillin plates.

Experiment [2] has as its target T3, TNF-R1-DD ligand protein encoded by clone 27TU (Homo sapiens (Human), UniProt Q8WXG6 1002-1647).
T3 construct: partial clone
As to the kind of experiment: yeast interaction trap, panel of baits. From the text:
(§3) The ability of these clones to bind the TNF-R death domain was compared to their binding to the intracellular domain of the second TNF-R (TNF-R p75IC), the entire intracellular domain of TNF-R (TNF-R p55IC), the death domain of the fas antigen (which shares 28% identity with TNF-R-DD) (FasDD), the Drosophila transcription factor bicoid, and a region of the IL-1 receptor known to be critical for signalling (IL-1R₄₇₇₋₅₂₇).

Experiment [3] deals with T1, TNF-R1-DD ligand protein encoded by …. As to the kind of experiment: yeast interaction trap, panel of baits.
Source text: as §3

The target of experiment [4] is T4, protein encoded by clone 15TU (Homo sapiens (Human), UniProt Q8WXG6 1329-1647).
T4 construct: The limits 289-607 are printed as approximate
As to the kind of experiment: yeast interaction trap, panel of baits.
Source text: as §3

The target in experiment [5] is T2, TNF-R1-DD ligand protein encoded by …. Kind of experiment: yeast interaction trap, panel of baits.
Source text: as §1, §2

The target of experiment [6] is T5, TNF-R1-DD ligand protein encoded by clone 2DD (Homo sapiens (Human), UniProt Q8WXG6 1217-1647).
T5 construct: partial clone of a longer protein
As to the kind of experiment: yeast interaction trap, panel of baits.
Source text: as §1, §2

Experiment [7] has as its target T1, TNF-R1-DD ligand protein encoded by …. Kind of experiment: yeast interaction trap, wild type against death domain mutants.
Experiment [8] concerns the target T4, protein encoded by clone 15TU. Described as above.
The target of experiment [9] is T3, TNF-R1-DD ligand protein encoded by …. As to the kind of experiment: yeast interaction trap, death domain mutants. The procedure:
(§4) The ability of each clone to interact with four single-site mutations in the TNF-R death domain (each known to abolish signalling) was measured.

Experiment [10] addresses T1, TNF-R1-DD ligand protein encoded by …. As to the kind of experiment: yeast interaction trap, death domain mutants. On the procedure: as §4
The target of experiment [11] is T4, protein encoded by clone 15TU. Kind of experiment: yeast interaction trap, death domain mutants. On the procedure:
as §4

For another experiment, the target named is MBP protein (UniProt P0AEX9 27-392 = MBP). As to the kind of experiment: pull-down on glutathione beads, Western blot with anti-MBP antibody. On the procedure: The reaction ws performed at 4° C. for 2 hours and centrifuged to remove unbound fraction (Unbound). The beads were then washed with 500 μl binding buffer four times and resuspended into SDS-sample buffer (Bound).
(A western blot detects proteins with antibodies after separation by electrophoresis.)

T4 sequence (Q8WXG6 1329-1647): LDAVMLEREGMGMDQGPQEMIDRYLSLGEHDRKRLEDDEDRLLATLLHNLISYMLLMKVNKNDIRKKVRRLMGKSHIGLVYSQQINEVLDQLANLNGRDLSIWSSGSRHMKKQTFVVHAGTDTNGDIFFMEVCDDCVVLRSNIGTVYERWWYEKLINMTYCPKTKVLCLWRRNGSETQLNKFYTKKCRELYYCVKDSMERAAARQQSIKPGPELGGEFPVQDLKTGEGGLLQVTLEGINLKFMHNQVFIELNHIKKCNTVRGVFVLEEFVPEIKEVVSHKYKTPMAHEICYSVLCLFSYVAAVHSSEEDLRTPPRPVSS
T3 sequence (Q8WXG6 other isoform, or with tags, fused parts or gaps): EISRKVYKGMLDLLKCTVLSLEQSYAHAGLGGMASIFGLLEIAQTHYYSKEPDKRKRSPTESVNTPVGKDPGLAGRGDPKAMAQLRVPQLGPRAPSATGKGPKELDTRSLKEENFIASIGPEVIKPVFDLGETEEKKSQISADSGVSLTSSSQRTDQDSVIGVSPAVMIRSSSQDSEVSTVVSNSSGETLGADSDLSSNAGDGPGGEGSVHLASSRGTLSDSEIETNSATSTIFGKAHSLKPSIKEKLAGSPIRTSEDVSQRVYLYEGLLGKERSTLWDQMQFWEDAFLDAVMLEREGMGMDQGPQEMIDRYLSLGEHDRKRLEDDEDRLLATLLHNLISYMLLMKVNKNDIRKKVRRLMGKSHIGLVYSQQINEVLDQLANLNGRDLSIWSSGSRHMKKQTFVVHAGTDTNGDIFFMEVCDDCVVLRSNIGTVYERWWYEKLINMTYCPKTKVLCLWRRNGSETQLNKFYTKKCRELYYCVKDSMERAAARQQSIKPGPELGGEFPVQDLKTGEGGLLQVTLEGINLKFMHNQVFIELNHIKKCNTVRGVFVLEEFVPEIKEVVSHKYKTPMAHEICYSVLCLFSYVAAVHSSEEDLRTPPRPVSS
T5 sequence (Q8WXG6 other isoform, or with tags, fused parts or gaps): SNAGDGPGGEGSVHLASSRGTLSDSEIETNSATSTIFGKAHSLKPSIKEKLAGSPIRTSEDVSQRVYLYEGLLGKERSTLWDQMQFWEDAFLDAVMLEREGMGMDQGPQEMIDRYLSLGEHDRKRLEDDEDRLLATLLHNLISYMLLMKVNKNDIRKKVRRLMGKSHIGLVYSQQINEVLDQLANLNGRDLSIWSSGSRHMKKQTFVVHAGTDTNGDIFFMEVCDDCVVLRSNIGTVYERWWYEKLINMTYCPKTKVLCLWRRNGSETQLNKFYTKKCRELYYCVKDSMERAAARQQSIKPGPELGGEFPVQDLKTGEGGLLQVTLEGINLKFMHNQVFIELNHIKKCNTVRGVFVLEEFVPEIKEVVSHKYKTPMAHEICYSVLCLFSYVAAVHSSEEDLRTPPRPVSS

As to B1, the binding result in experiment [1] is on record as “binds”.

Consider B2, for which the binding result in [2], in experiment [3] and in experiment [4] was “no binding” in each case.

Consider B3, for which the binding result in experiment [2], in experiment [3] and in [4] was “binds” in each case.

Consider B4, for which the binding result in [2] and in experiment [3] was “no binding” in each case.

Consider B5, for which the binding result in experiment [5], in experiment [6], in experiment [2], in [7] and in experiment [8] was “binds” in each case.

As to B6, the binding result in [9], in experiment [10] and in [11] was “binds” each time.

Turning to B7, the binding result in experiment [9], in [10] and in experiment [11] was “binds” each time.

In the case of B8, the binding result in experiment [9], in [10] and in experiment [11] was “binds” in each case.

In the case of B9, the binding result in [9], in [10] and in experiment [11] was “binds” each time.

For B10, the binding result with MBP protein is listed as “no binding (tested: 3 µg)”.

As to B11, the binding result in [2] and in [4] was “no binding” in each case.
